In patent US20210388108A1 (GLYCARDIAL DIAGNOSTICS S L, published 2021):
No end group written: not given here. *: point of attachment. Biotin = O=C1N[C@H]2[C@H](CS[C@H]2CCCCC(=O)*)N1; GlcNAc = N-acetylglucosamine

T1: Ag1G (Bio-REIRHN(GlcNAc)STGC)
T1 peptide: Biotin-REIRHN(GlcNAc)STGC

T2: Ag4G (Bio-EEFLN(GlcNAc)QSSP)
T2 peptide: Biotin-EEFLN(GlcNAc)QSSP

B1: Ag1G-11 (antibody, V domains shown)
VH: QSLEESGGRLVTPGGSLTLTCTVSGFSLSSYAMSWVRQAPGKGLEWIGIIGVNGDTYYASWAKGRFTISKTSTTVGLKITSPTTEDTATYFCARVRYPYYDTDAFDPWGPGTLVTISS
VL: DPVLTQTPSPVSAAVGGTVTINCQASQSVYNNNELSWYQQKPGQPPKPLIYQASKLASGVPSRFKGSGSGTQFTLTISDLECDDAATYYCQGIYLGSDWYDVFGGGTEVVVKR
notes: Rabbit/human chimeric clone from a Fab phage library; tested 'in the form of IgG'; the FWR4 entries as printed run on into human C kappa (light) and human CH1 plus His tag (heavy), i.e. the Fab format; also called Apo J-GlcNAc Ag1G-11
B2: Ag4G-6 (antibody, V domains shown)
VH: QQLEESGGRLVTPGTPLTLTCTASGMDLSKYWMTWVRQAPGKGLEYIGIIETGGSAYYASWAKGRFTISRTSTTVDLKMISPTTEDTATYFCGRWGDIWGPGTLVTVSS
VL: MTQTPASVEVAVGGTVTIKCQASQSINGYLAWYQQKPGQPPKLLIYQASTLASGVSSRFQGSGSGTEYTLTISGVQCDDAATYYCQGDYYGWIRTFGGGTEVVVKR
notes: Rabbit/human chimeric clone from a Fab phage library; tested 'in the form of IgG'; the FWR4 entries as printed run on into human C kappa (light) and human CH1 plus His tag (heavy), i.e. the Fab format; also called Apo J-GlcNAc Ag4G-6

Assays:
[1] = molecular target: T1, Ag1G (Bio-REIRHN(GlcNAc)STGC); test: QC ELISA of the IgG on its target peptide
[2] = molecular target: T2, Ag4G (Bio-EEFLN(GlcNAc)QSSP); test: QC ELISA of the IgG on its target peptide

Binder	binding result [1]	binding result [2]
B1	binds	
B2		binds
